Literature values in paper PMC6873222.

What was measured:
[1] = target: CD55 ECD (Homo sapiens) (UniProt P08174)
[2] = target: SIRPG ECD (Homo sapiens) (UniProt Q9P1W8)
Chain of UniProt Q9P1W8 (Q9P1W8 29-360): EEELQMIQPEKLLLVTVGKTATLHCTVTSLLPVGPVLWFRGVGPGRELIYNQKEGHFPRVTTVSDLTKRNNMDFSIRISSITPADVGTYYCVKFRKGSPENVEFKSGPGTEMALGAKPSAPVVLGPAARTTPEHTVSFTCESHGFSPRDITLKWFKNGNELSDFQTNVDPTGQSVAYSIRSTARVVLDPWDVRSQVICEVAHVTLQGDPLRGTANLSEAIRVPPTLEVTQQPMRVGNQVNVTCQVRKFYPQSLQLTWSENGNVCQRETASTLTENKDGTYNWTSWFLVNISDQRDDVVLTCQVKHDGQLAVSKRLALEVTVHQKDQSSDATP

Chain of UniProt P08174 (P08174 35-353): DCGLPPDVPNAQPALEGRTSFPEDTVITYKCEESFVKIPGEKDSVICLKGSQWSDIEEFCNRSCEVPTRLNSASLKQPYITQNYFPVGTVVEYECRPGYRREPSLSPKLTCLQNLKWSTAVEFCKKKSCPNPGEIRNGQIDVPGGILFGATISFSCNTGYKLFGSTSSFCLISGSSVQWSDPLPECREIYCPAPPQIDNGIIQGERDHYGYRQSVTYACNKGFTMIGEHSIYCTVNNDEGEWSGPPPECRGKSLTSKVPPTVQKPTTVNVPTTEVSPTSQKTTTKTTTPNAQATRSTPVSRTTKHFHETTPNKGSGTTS

| Substance | Kd [1] [µM] | Kd [2] [µM] |
| --- | --- | --- |
| CD97 ECD (from UniProt P48960) | > 80 | – |
| CD47 ECD (from UniProt Q08722) | – | 23 |
